± gives the uncertainty stated by the source.
Test: amyloid nucleation score (Sup35N fusion, yeast selection) (log enrichment); library NNK3; higher = more nucleation; inactive = no reads after selection
In short: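 On medium lacking adenine and uracil, psi-negative yeast expressing peptides of 20 random codons fused to Sup35N were grown 7 days at 30°C after a 24-hour induction with 100 μM copper sulfate. Illumina sequencing of input and output plasmid inserts gave the reads, and sequences under 100 input reads were excluded. The nucleation score is the DiMSum log enrichment of output over input reads, centred on the mode score of non-aggregating sequences.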
VFMCLANYMFPIPGNRHVPP gave an amyloid nucleation score of 0.053 ± 0.75.
In the case of VFPPEMRVFPLFCW, the amyloid nucleation score is reported as “inactive”.
Substance VFSFDMLHRLG has an amyloid nucleation score of 1.53 ± 0.099.
With VFSFRTYNLYGEDNEQLLHW the amyloid nucleation score was “inactive”.
For VFVKLQHVGMSLGSFFPGSM, the amyloid nucleation score was 0.85 ± 0.19.
Work on VFVSS yielded an amyloid nucleation score of -0.36 ± 1.
For VFVVLLALSYGSDNTV, the amyloid nucleation score was “inactive”.
With VFWLRYMNVSRANARGNAS the amyloid nucleation score was “inactive”.
In the case of VGCIRGNGFVTQQATGY, the amyloid nucleation score is reported as “inactive”.
With VGIALASIK the amyloid nucleation score was “inactive”.
In the case of VGILLFFYLTNVEQAVTFVR, the amyloid nucleation score is reported as “inactive”.
In the case of VGNEECIYQIRFFLRLSGSL, the amyloid nucleation score is reported as “inactive”.
For VGNLCVLKGTTIMFGIMGST, the amyloid nucleation score was 1.18 ± 0.14.
With VGQYGRFDTSQFCVFVVGE the amyloid nucleation score was “inactive”.
For VGRAEWLC, the amyloid nucleation score was “inactive”.
With VGSPWSYKG the amyloid nucleation score was “inactive”.
With VGTGVM the amyloid nucleation score was “inactive”.
For VGTLRSAGIIMVSRELVMRV, the amyloid nucleation score was “inactive”.
In the case of VGWTVGYKW, the amyloid nucleation score is reported as “inactive”.
With VGYAKYPSNRVRIYRGFENV the amyloid nucleation score was “inactive”.
In the case of VHFKCLRRCVGVIDRCINRH, the amyloid nucleation score is reported as “inactive”.
For VHFSVMVGKKDDPSLF, the amyloid nucleation score was “inactive”.
For VHLSWFSIIVRVDEGDWARR, the amyloid nucleation score was -0.839 ± 1.5.
In the case of VHLYADPDVMQYNRWDVVGY, the amyloid nucleation score is reported as “inactive”.
In the case of VHLYEFRLNAACSCPSDRYG, the amyloid nucleation score is reported as “inactive”.
With VHVRWVVRMVSWKYLAGILL the amyloid nucleation score was “inactive”.
For VHVVLIIWTSHQLTCADLAY, the amyloid nucleation score was “inactive”.
In the case of VHYIVNYRGRILV, the amyloid nucleation score is reported as “inactive”.
With VHYYEE the amyloid nucleation score was “inactive”.
With VIGQGLCWGFSTVDIP the amyloid nucleation score was “inactive”.
In the case of VIGVNIWSCL, the amyloid nucleation score is reported as 1.29 ± 0.1.
For VILQMT, the amyloid nucleation score was “inactive”.
In the case of VIMFVAIGWLLR, the amyloid nucleation score is reported as “inactive”.
In the case of VINRHVCGRVGMLTGFDGLT, the amyloid nucleation score is reported as “inactive”.
For VINRST, the amyloid nucleation score was 0.979 ± 0.11.
In the case of VIQGLYSSFMHVYG, the amyloid nucleation score is reported as “inactive”.
For VIRRHWR, the amyloid nucleation score was “inactive”.
In the case of VISCCP, the amyloid nucleation score is reported as “inactive”.
With VISISRFDGWQRAHVKVRVS the amyloid nucleation score was “inactive”.
With VISVGLVIKRLYSMWYLAAG the amyloid nucleation score was “inactive”.
Work on VITADLRSMIWDVPKNVY yielded an amyloid nucleation score of 0.92 ± 0.16.
In the case of VITVSVTHNNANFFQMTDGM, the amyloid nucleation score is reported as 2.88 ± 0.055.
For VIVICFIFLMNVIPIQACWT, the amyloid nucleation score was “inactive”.
For VIVRDSLISVSSTIRDFVCG, the amyloid nucleation score was “inactive”.
With VIWGTPQFSFAEVREFDLVH the amyloid nucleation score was “inactive”.
With VKGQWR the amyloid nucleation score was “inactive”.
In the case of VKHQVDCLIVVI, the amyloid nucleation score is reported as “inactive”.
For VKKSYWAERGFFGA, the amyloid nucleation score was “inactive”.
For VKMTGDVVTLHLRDLINCWA, the amyloid nucleation score was “inactive”.
For VKTYFTSLRFVISMGWLNNQ, the amyloid nucleation score was “inactive”.
With VKVLWFSDCSSLYCHSVDGP the amyloid nucleation score was “inactive”.
In the case of VKVMMT, the amyloid nucleation score is reported as “inactive”.
For VLADCWRSGIHWIGHTYLIN, the amyloid nucleation score was “inactive”.
With VLASSKGICPMPSTSEFSFH the amyloid nucleation score was “inactive”.
In the case of VLCCANKYSFTNQQSGSASE, the amyloid nucleation score is reported as 0.952 ± 0.1.
With VLDLTKYSFLTI the amyloid nucleation score was “inactive”.
With VLFAKRLDLTCVFLFIGRVW the amyloid nucleation score was “inactive”.
In the case of VLFFSAYWMFQKVGVLVPSK, the amyloid nucleation score is reported as “inactive”.
For VLFMMMERHSRSRSRGSLQ, the amyloid nucleation score was 0.858 ± 0.23.
With VLGCFVVKGSKFVDLPEFHR the amyloid nucleation score was 1.3 ± 0.085.
In the case of VLGDSNFF, the amyloid nucleation score is reported as “inactive”.
For VLGMNEPCSFW, the amyloid nucleation score was “inactive”.
With VLIMYKSGRYVIGSLVLMCL the amyloid nucleation score was “inactive”.
For VLLFI, the amyloid nucleation score was “inactive”.
With VLLLFWAPVNAGTVWYLWNR the amyloid nucleation score was “inactive”.
For VLNFIMAWYNFRFVWGSMGV, the amyloid nucleation score was “inactive”.
For VLRKARVVIRSYSMEVRFRS, the amyloid nucleation score was “inactive”.
In the case of VLRSANCCCGFD, the amyloid nucleation score is reported as “inactive”.
For VLSCVAIRSYILHKVSVGIC, the amyloid nucleation score was “inactive”.
For VLSVLFFLLLSPPIRFQVEG, the amyloid nucleation score was “inactive”.
For VLTVVAKAWFPVFRPTWFLL, the amyloid nucleation score was “inactive”.
With VLVCSAMNGFSFHNLSH the amyloid nucleation score was 0.872 ± 0.15.
For VLVESDLSVIATVSGLLCAR, the amyloid nucleation score was “inactive”.
With VLVVCSLSAC the amyloid nucleation score was “inactive”.
For VLWDGF, the amyloid nucleation score was “inactive”.
With VLYSYRYSYSVGLCTEMHRF the amyloid nucleation score was “inactive”.
In the case of VMCFYRLLNVIQWTTANVFG, the amyloid nucleation score is reported as “inactive”.
With VMDIVHPSSDAVVGRA the amyloid nucleation score was -0.125 ± 0.53.
For VMFIVNLY, the amyloid nucleation score was 3.07 ± 0.08.
For VMIFSCYSAYYPNLISHSRW, the amyloid nucleation score was “inactive”.
With VMKPSNVVQGSMNPESSLGM the amyloid nucleation score was “inactive”.
In the case of VMLRMDARQWHSLATVTVVP, the amyloid nucleation score is reported as “inactive”.
For VMTVVRKSSSSVVAISWISE, the amyloid nucleation score was 0.392 ± 0.54.
In the case of VMVCFG, the amyloid nucleation score is reported as “inactive”.
In the case of VMYHGMITLLVMLKTEQRKK, the amyloid nucleation score is reported as “inactive”.
For VNEERGNYVWSCIMRYHLWD, the amyloid nucleation score was “inactive”.
VNEIF showed an amyloid nucleation score of 0.432 ± 0.23.
With VNENLTGFIGV the amyloid nucleation score was “inactive”.
In the case of VNESMNDIANRSDEGYFGCA, the amyloid nucleation score is reported as “inactive”.
For VNGCIRCCTPVSKYISVDLA, the amyloid nucleation score was “inactive”.
With VNIIF the amyloid nucleation score was “inactive”.
With VNLVLIISNPR the amyloid nucleation score was “inactive”.
Substance VNMMRDVVIDKVLFLSSHVA has an amyloid nucleation score of 1.48 ± 0.12.
With VNNKSFCRWAGANNLLQVMH the amyloid nucleation score was “inactive”.
For VNNSRGSAYSEVRSILRRYA, the amyloid nucleation score was “inactive”.
In the case of VNQVVM, the amyloid nucleation score is reported as “inactive”.
With VNRNVLTVSGCCLVYAPLC the amyloid nucleation score was 2.26 ± 0.06.
In the case of VNSRCI, the amyloid nucleation score is reported as “inactive”.
In the case of VNTFGLDHEITSFMMCGETG, the amyloid nucleation score is reported as “inactive”.
With VNVRHTGSLTFFF the amyloid nucleation score was 1.01 ± 0.12.
Work on VNVVEFTRFRAW yielded an amyloid nucleation score of 0.585 ± 0.35.
With VNYSLLRVNMFKYGSSYPIP the amyloid nucleation score was “inactive”.
In the case of VPFDGLFWYCRCR, the amyloid nucleation score is reported as “inactive”.
With VPGQYWFIDGMTFGNDDTRS the amyloid nucleation score was “inactive”.
For VPGRVMVLRIWIYRNVQKRG, the amyloid nucleation score was “inactive”.
With VPKPD the amyloid nucleation score was “inactive”.
With VPLMQGD the amyloid nucleation score was 3.16 ± 0.056.
With VPRMSALRESFHKDNS the amyloid nucleation score was “inactive”.
In the case of VPTVRLTSSSFL, the amyloid nucleation score is reported as “inactive”.
With VPVVGISYSYLILWFYLYVG the amyloid nucleation score was “inactive”.
For VPWGIVSFA, the amyloid nucleation score was “inactive”.
In the case of VPWSLCDD, the amyloid nucleation score is reported as 0.508 ± 0.12.
In the case of VQFFNDRSLVDSQIGRLLLP, the amyloid nucleation score is reported as “inactive”.
For VQLGAD, the amyloid nucleation score was “inactive”.
In the case of VQLLDLKILIIDSVDSKYVC, the amyloid nucleation score is reported as “inactive”.
With VQRISTIMINV the amyloid nucleation score was “inactive”.
With VQRSYWICQLPAGVSWSGI the amyloid nucleation score was “inactive”.
For VQSKMCVKYFWGRHTRHQLG, the amyloid nucleation score was “inactive”.
VQTSHHNAVEICCMCLCQML gave an amyloid nucleation score of 3.02 ± 0.065.
In the case of VQWCQDAFVIV, the amyloid nucleation score is reported as “inactive”.
For VQYFPISGDARGRQLQRI, the amyloid nucleation score was “inactive”.
Work on VRAGTIYRGVYHFCLFCMGE yielded an amyloid nucleation score of 0.828 ± 0.15.
With VRCKVMSSAAATVFFVSGAV the amyloid nucleation score was “inactive”.
In the case of VRDCTTDTQWERWVETLSPS, the amyloid nucleation score is reported as “inactive”.
With VRFVLDRIACLVGVYIYFWG the amyloid nucleation score was “inactive”.
Substance VRLWFSGRTFSVKVVTHAPC has an amyloid nucleation score of 1.41 ± 0.098.
In the case of VRMQLMWCGP, the amyloid nucleation score is reported as “inactive”.
In the case of VRMVKYCLTLSSRTYCLIIM, the amyloid nucleation score is reported as “inactive”.
With VRREYDWMPHHWMGTGLCKC the amyloid nucleation score was “inactive”.
With VRVLWI the amyloid nucleation score was “inactive”.
With VRVSNSFMTDTK the amyloid nucleation score was “inactive”.
VRVTVLFEIHGDVCMLMSVA gave an amyloid nucleation score of 0.827 ± 0.13.
With VRYWTTPVL the amyloid nucleation score was “inactive”.
In the case of VSALSGGFMENCCQSNFLTP, the amyloid nucleation score is reported as “inactive”.
In the case of VSDRCFKSTWSLMFYMGVVV, the amyloid nucleation score is reported as “inactive”.
With VSESSFRLCGGLRSGCLKSA the amyloid nucleation score was “inactive”.
For VSFEFEIRESSGISCM, the amyloid nucleation score was “inactive”.
With VSFVSSVIVDGMPEILSIRY the amyloid nucleation score was “inactive”.
VSLIVLVRSVCSCVTHSFYE gave an amyloid nucleation score of 2.08 ± 0.097.
For VSLRQVS, the amyloid nucleation score was “inactive”.
In the case of VSLVMSQVLRHHRCLLIYYL, the amyloid nucleation score is reported as “inactive”.
With VSMIKRLGHCGVLGGKTYRV the amyloid nucleation score was -0.671 ± 0.8.
In the case of VSSAMYYLFKGLAETLRYSS, the amyloid nucleation score is reported as “inactive”.
For VSSCAC, the amyloid nucleation score was “inactive”.
VSSKDGLFCCL gave an amyloid nucleation score of 0.209 ± 0.66.
In the case of VSVRYPLNKECFYDCL, the amyloid nucleation score is reported as “inactive”.
For VSWNWATGLRFRPLSCYGLV, the amyloid nucleation score was “inactive”.
In the case of VSWVYRSGRFYDGVGVGYRT, the amyloid nucleation score is reported as “inactive”.
In the case of VSYTRTIPLKGSNLMLIWF, the amyloid nucleation score is reported as “inactive”.
For VSYWNEHHSEIVPLGCF, the amyloid nucleation score was “inactive”.
In the case of VTCCARTYYSWP, the amyloid nucleation score is reported as “inactive”.
Substance VTCWGWSFAGGRHCQVEAGV has an amyloid nucleation score of -0.456 ± 0.96.
With VTFSSISHIRRYVSNHMCLG the amyloid nucleation score was “inactive”.
With VTGNDQ the amyloid nucleation score was “inactive”.
VTILMLNHYSYTSLLMRKFN gave an amyloid nucleation score of 0.704 ± 0.12.
Work on VTLCLSKLAF yielded an amyloid nucleation score of 1.26 ± 0.097.
For VTLQSSSQVSSCVNNSR, the amyloid nucleation score was “inactive”.
For VTNRIGLV, the amyloid nucleation score was “inactive”.
With VTQMKNTLY the amyloid nucleation score was “inactive”.
In the case of VTRGVLLCEPVTGMHQVACG, the amyloid nucleation score is reported as “inactive”.
In the case of VTRMDGYVAFISNHSFKSVY, the amyloid nucleation score is reported as 1.36 ± 0.14.
With VTSGLERTMFSGNKRRIEVS the amyloid nucleation score was “inactive”.

— the supplement of paper PMC12042874
